Test results as given in US12331120 (dated 2025).
Substitutions are numbered along the chain they refer to. Values belong to the binder of their own block, whether it stands above or below them.

Assays:
human PD-L1 [1] = target: T1, human PD-L1 (human, UniProt Q9NZQ7); test: SPR
mouse PD-L1 = mouse PD-L1 (mouse, UniProt Q9EP73); test: SPR
human PD-L1 [2] = target: T1, human PD-L1; test: BLI

T1 sequence (Q9NZQ7 19-238): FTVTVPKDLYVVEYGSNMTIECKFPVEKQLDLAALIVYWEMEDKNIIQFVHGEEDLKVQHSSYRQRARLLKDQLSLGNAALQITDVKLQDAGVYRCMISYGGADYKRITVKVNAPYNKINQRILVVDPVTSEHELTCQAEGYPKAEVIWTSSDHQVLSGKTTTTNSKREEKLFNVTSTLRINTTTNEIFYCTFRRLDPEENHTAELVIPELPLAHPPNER
Chain of mouse PD-L1 (Q9EP73 19-238): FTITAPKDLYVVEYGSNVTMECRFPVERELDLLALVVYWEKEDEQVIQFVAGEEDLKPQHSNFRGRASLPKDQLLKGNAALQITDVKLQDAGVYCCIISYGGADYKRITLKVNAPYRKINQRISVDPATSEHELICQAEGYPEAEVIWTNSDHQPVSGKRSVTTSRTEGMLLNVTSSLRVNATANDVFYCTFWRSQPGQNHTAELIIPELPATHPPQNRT

Kd (human PD-L1 [1]): ~63.2 pM
Kd (mouse PD-L1): ~2800 pM
Kd (human PD-L1 [2]): 4.89 pM
B1: KL001-13 (antibody, V domains shown)
VH: QVQLVESGAEVKKPGSSVKVSCKASGGTFSSYAISWVRQAPGQGLEWMGRIIPILGIANYAQKFQGRVTVTADKSTSTAYMELSSLRSEDTAVYYCARSGYGYAYGSFDYWGQGTLVTVSS
VL: QLVLTQPPSVSGAPGQTVTISCTGQTIGAGYDVHWYQQLPGAAPKLLIYGNLNRPSGVPDRFSGSKSGTSASLAITDLQAEDEADYYCQSYDSRLGVVFGGGTKLTVL

Kd (human PD-L1 [2]): 58.4 pM
B2: KL001 (PL110) (antibody, V domains shown)
VH: B1 VH with G102S
VL: B1 VL with Q25P
